Assay results as given in paper PMC3707680, “Structural and Pharmacological Characterization of Novel Potent and Selective Monoclonal Antibody Antagonists of Glucose-dependent Insulinotropic Polypeptide Receptor” (The Journal of Biological Chemistry, 2013).
Like-named read-outs stand apart in the source and are kept apart here.

How the values were obtained:
[1] = molecular target: T1, human GIP receptor on HEK293 cells (human) (UniProt P48546)
T1 sequence: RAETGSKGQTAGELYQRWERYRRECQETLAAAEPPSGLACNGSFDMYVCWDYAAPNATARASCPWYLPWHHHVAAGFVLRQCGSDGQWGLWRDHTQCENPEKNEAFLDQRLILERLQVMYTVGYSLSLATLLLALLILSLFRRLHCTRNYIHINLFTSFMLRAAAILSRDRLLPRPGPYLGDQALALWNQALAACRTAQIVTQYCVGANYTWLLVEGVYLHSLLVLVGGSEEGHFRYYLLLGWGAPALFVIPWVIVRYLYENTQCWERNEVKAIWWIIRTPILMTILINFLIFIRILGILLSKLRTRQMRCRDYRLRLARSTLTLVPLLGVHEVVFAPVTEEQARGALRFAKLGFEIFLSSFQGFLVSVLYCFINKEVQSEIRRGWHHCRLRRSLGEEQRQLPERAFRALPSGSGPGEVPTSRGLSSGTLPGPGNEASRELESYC

[2] = molecular target: T1, human GIP receptor on HEK293 cells (human); assay: fluorescent microvolume assay technology (FMAT) on cells; receptor ligand competition with unlabelled peptides against AlexaFluor 647-labeled GIP on human GIPr-overexpressing cells; data not shown
GIP(1–42) peptide = GIP(1–42) peptide (UniProt P09681)
[3] = molecular target: T2, human GIP receptor on HEK293 cells (human, UniProt P48546)
T2 construct: glucose-dependent insulinotropic polypeptide receptor, human, full-length receptor gene; also called HEK293 human GIPr; hGIPr; source: HEK293, stably transfected (pIRESneo3), on cells

biotinylated GIPr ECD = molecular target: T3, biotinylated GIPr ECD (Homo sapiens, biotin (EZ-link Sulfo-NHS-LC-Biotin), positions not stated); assay: BLI; Octet RED (reflectometric interference spectroscopy); biotinylated GIPr ECD at 1.2 μg/ml on Super Streptavidin biosensors; scFv at ~0.5 μM (12.5 μg/ml), single concentration; PBS with kinetics buffer; 1:1 Langmuir; conditions: both partners purified
T3 construct: glucose-dependent insulinotropic polypeptide receptor, human, extracellular domain; same construct as m4, biotinylated; held on Super Streptavidin biosensors; also called soluble biotinylated GIPr ECD
T3 chain: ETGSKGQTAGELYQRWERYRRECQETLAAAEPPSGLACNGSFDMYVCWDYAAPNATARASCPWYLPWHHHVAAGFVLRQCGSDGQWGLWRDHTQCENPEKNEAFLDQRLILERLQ

[4] = molecular target: T4, mouse GIP receptor on HEK293 cells (Mus musculus, UniProt Q0P543); assay: fluorescent microvolume assay technology (FMAT) on cells; 0.25 μg/ml IgG with AlexaFluor 647-labeled goat anti-human IgG on stably transfected cells (5000 cells a well), Hanks' balanced salt solution with 0.1% BSA, room temperature, 3 h; conditions: one partner purified
T4 construct: glucose-dependent insulinotropic polypeptide receptor, mouse, full-length receptor gene; also called mGIPr; source: HEK293, stably transfected (pIRESneo3), on cells
T4 sequence (Q0P543 19-460): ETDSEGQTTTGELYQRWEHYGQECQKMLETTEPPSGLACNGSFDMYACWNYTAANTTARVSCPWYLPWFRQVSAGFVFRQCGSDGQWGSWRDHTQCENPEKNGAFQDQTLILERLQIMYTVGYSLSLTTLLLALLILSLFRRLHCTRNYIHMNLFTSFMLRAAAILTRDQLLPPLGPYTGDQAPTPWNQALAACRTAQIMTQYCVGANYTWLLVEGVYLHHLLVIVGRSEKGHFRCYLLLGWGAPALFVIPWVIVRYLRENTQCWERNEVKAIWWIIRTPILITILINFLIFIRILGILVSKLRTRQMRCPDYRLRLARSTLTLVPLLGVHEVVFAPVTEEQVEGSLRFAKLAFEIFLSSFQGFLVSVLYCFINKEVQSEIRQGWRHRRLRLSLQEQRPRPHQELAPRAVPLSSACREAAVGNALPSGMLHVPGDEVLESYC

[5] = molecular target: T5, mouse GLP-1 receptor on overexpressing cells (Mus musculus, UniProt O35659); assay: as above; conditions: one partner purified
T5 construct: glucagon-like peptide 1 receptor, mouse; also called mGLP-1r; source: stably transfected cell line, on cells
T5 sequence (O35659 22-463): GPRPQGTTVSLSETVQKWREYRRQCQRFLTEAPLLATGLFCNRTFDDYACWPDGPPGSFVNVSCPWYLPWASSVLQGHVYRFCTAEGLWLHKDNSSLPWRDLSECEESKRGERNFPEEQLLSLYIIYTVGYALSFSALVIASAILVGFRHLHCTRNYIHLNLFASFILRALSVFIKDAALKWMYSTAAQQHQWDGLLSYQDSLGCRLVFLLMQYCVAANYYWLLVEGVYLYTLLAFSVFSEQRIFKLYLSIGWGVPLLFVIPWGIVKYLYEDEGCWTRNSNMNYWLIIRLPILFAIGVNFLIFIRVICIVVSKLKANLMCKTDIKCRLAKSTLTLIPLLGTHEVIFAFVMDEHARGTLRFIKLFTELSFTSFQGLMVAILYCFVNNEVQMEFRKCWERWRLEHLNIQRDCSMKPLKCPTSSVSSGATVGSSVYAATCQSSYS

[6] = molecular target: T6, dog GLP-1 receptor on overexpressing cells (Canis lupus familiaris, UniProt A0A8I3NUR9); assay: as above; conditions: one partner purified
T6 construct: glucagon-like peptide 1 receptor, dog; also called dGLP-1r; source: stably transfected cell line, on cells

[7] = molecular target: T7, human GLP-1 receptor on overexpressing cells (Homo sapiens, UniProt P43220); assay: as above; conditions: one partner purified
T7 construct: glucagon-like peptide 1 receptor, human; also called hGLP-1r; source: stably transfected cell line, on cells
T7 sequence (P43220 24-463): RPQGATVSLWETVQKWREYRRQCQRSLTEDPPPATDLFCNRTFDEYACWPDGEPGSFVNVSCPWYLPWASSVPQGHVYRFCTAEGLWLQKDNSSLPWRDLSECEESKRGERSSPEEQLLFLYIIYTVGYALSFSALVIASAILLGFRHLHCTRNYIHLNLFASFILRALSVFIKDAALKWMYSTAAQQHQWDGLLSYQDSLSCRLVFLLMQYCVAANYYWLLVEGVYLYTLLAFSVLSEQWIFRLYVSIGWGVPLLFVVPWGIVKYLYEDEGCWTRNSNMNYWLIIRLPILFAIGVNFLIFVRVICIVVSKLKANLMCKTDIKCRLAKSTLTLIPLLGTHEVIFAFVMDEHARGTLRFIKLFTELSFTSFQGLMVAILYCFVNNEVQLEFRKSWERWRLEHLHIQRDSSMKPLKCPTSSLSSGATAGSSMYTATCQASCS

[8] = molecular target: T8, human glucagon receptor on overexpressing cells (Homo sapiens, UniProt P47871); assay: as above; conditions: one partner purified
T8 construct: glucagon receptor, human; also called GCGr; hGCGr; source: stably transfected cell line, on cells
T8 sequence (P47871 26-477): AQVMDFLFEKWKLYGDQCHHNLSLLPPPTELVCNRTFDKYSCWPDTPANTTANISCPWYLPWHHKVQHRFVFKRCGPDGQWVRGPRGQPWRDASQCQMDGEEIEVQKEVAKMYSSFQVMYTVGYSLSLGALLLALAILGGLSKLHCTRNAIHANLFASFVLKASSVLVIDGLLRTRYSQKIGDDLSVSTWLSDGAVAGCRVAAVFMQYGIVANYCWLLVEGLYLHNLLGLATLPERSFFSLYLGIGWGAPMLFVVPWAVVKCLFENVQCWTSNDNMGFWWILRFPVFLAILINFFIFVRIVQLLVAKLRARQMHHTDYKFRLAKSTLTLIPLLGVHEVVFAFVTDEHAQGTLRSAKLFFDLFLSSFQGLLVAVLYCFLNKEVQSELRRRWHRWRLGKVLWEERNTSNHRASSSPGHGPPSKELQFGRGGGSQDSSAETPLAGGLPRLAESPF

[9] = molecular target: T9, rat GLP-1 receptor on overexpressing cells (Rattus norvegicus, UniProt P32301); assay: as above; conditions: one partner purified
T9 construct: glucagon-like peptide 1 receptor, rat; also called rGLP-1r; source: stably transfected cell line, on cells
T9 sequence (P32301 22-463): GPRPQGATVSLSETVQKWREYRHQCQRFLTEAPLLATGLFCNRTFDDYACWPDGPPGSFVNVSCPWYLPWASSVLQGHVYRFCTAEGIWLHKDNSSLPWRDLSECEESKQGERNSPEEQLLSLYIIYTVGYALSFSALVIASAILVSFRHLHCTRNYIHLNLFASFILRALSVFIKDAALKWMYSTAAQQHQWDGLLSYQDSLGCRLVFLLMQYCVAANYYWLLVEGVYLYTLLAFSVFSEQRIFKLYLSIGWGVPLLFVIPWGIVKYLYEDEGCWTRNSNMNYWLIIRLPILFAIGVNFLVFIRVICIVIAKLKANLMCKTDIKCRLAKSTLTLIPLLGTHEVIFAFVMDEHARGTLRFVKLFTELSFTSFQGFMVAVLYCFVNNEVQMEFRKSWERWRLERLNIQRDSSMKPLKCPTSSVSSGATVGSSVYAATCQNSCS

[10] = molecular target: T10, mouse glucagon receptor on overexpressing cells (Mus musculus, UniProt Q61606); assay: as above; conditions: one partner purified
T10 construct: glucagon receptor, mouse; also called GCGr; mGCGr; source: stably transfected cell line, on cells
T10 sequence (Q61606 27-485): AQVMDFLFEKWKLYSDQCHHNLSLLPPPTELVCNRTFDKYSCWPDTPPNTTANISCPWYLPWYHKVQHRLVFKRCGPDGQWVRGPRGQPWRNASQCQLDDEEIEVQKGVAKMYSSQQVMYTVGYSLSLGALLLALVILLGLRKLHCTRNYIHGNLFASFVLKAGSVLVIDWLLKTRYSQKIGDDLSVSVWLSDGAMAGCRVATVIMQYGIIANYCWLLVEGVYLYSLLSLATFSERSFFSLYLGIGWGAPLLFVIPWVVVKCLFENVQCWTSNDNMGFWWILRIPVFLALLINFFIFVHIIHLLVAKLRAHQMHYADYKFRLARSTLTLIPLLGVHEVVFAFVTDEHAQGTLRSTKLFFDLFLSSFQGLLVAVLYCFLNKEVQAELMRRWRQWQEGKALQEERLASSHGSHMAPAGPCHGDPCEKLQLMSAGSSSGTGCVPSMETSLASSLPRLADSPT

[11] = molecular target: T11, rat glucagon receptor on overexpressing cells (Rattus norvegicus, UniProt P30082); assay: as above; conditions: one partner purified
T11 construct: glucagon receptor, rat; also called GCGr; rGCGr; source: stably transfected cell line, on cells
T11 sequence (P30082 27-485): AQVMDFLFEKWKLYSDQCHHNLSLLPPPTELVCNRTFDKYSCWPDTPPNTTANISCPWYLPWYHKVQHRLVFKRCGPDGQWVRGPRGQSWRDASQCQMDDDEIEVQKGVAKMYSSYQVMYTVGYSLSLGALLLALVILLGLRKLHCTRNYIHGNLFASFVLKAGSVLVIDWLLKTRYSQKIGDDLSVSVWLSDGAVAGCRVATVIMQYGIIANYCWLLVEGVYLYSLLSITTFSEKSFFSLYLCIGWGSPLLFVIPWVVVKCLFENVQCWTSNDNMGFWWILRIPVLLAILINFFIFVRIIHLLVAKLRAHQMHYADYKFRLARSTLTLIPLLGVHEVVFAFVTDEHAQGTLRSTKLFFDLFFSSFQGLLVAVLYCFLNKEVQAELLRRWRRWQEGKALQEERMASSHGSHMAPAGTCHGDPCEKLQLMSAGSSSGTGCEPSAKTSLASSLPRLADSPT

[12] = molecular target: T2, human GIP receptor on HEK293 cells; assay: fluorescent microvolume assay technology (FMAT) on cells; receptor ligand competition: dilution series of antibody against 0.5 nM AlexaFluor 647-labeled GIP on HEK293 human GIPr cells, Hanks' balanced salt solution with 0.1% BSA, room temperature, 1–2 h; conditions: one partner purified
[13] = molecular target: T12, GIPr ECD (extracellular domain of the human GIP receptor) (Homo sapiens); assay: SPR; Biacore 2000; Gipg013 IgG amine-coupled to a CM5 chip at low density (~139 resonance units), GIPr ECD in solution; 25 °C, 30 μl/min, HBS-N (10 mM HEPES, pH 7.4, 150 mM sodium chloride); 1:1 Langmuir model; conditions: both partners purified
T12 construct: glucose-dependent insulinotropic polypeptide receptor, human, extracellular domain; also called GIPr extracellular domain
T12 chain: T3 chain

[14] = molecular target: T2, human GIP receptor on HEK293 cells; remark: listed apart in the source
[15] = molecular target: T12, GIPr ECD (extracellular domain of the …); assay: SPR; BIAcore, Gipg013 Fab and GIPr ECD; who was immobilised is not told for the Fab; conditions: both partners purified

Pro3GIP (peptide)
cAMP HTRF assay, agonism in HEK293 human GIPr cells (partial, to 83% of the response with GIP) [1]: 180 nM

GIP(7–30) (peptide)
IC50 [2]: 83 nM | cAMP HTRF assay, antagonism of GIP-induced cAMP production in HEK293 human GIPr cells [1]: 230 nM

biotinylated GIPr ECD (domain or fragment)
cAMP assay on HEK293 GIPr cells: soluble GIPr ECD competes with the cell surface GIPr for GIP (GIP(1–42) peptide): 7 µM

B1: Gipg013 scFv (scFv, V domains shown)
VH: QVQLQQSGAEVKKPGSSVKVSCKASGGTFSSYAISWVRQAPGQGLEWMGGIIPTFGTANYAQKFQGRVTITADESTSTAYMELSSLRSEDTAVYYCAQGPIVGAPTDYWGKGTLVTVSS
VL: SYVLTQPPSASGTPGQRVAISCSGSNSNIGSNTVHWYQQLPGAAPKLLIYSNNQRPSGVPDRFSGSNSGTSASLAISRLQSEDEADYYCAAWDDSLNGVVFGGGTKVTVL
notes: VH as in the heavy chain of m1; VL as in the light chain of m1; phage vector pCantab6 is named for the libraries
cAMP HTRF assay, antagonism of GIP-induced cAMP production in HEK293 human GIPr cells (blocks GIP on GIPr) [3]: 233 nM | Kd (biotinylated GIPr ECD): 25 nM | koff (biotinylated GIPr ECD): 0.00188 s⁻¹ | kon (biotinylated GIPr ECD): 74500 M⁻¹ s⁻¹

B2: Gipg013 IgG (antibody, V domains shown)
VH: B1 VH
VL: B1 VL
notes: VH of Gipg013; also in PDB 4HJ0 (heavy chain of the Fab, chains P and C); heavy chain constant region of human IgG1 (full-length antibody in the IgG1 format); the light chain is in PDB 4HJ0 (chains Q and D); IgG1; converted from the scFv clone; also called GIP013; Gipr013; source: mammalian cells (variable genes cloned into the pEU vectors), purified; copies: 2 + 2
binding result [4]: binds | binding result [5]: no binding (tested: 0.25 μg/ml) | binding result [6]: no binding (tested: 0.25 μg/ml) | binding result [7]: no binding (tested: 0.25 μg/ml) | binding result [8]: no binding (tested: 0.25 μg/ml) | binding result [9]: no binding (tested: 0.25 μg/ml) | binding result [10]: no binding (tested: 0.25 μg/ml) | binding result [11]: no binding (tested: 0.25 μg/ml) | IC50 [12]: 17.2 ± 6 nM | Kd [13]: 23 nM | koff [13]: 0.00369 s⁻¹ | kon [13]: 159000 M⁻¹ s⁻¹

B3: Gipg013 Fab (Fab, V domains shown)
VH: B1 VH
VL: B1 VL
notes: heavy chain of the Fab, PDB 4HJ0 chains P and C (final model Gln3-Val217, 206 residues); as the heavy chain of m1 up to the papain cut; light chain of the Fab, PDB 4HJ0 chains Q and D (final model Ser1-Glu213, 211 residues); as the light chain of m1; also called Gip013 Fab; source: papain digestion of the antibody
cAMP HTRF assay, antagonism of GIP-induced cAMP production in HEK293 human GIPr cells (blocks GIP on GIPr) [14]: 102 nM | Kd [15]: 40 nM
